± gives the half width of the 95% confidence interval.
Key:
[1] = folding stability dG unfold from trypsin proteolysis; higher = more stable
How it was run: (§1)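 Sequencing followed digestion of designed mini-proteins with trypsin and chymotrypsin, each at 11 concentrations in threefold dilutions together with a no-protease condition. The mini-proteins were under 80 residues, had no cysteine, sat in a PA-tagged cDNA display construct, and were kept only if AlphaFold2 dimer inter-PAE was above 15. From the counts, Bayesian fitting gave K50, and unfolding free energy was derived against a sequence-predicted unfolded-state K50 and a shared folded-state K50, per protease or combined.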

[2] = folding stability dG unfold from chymotrypsin proteolysis; higher = more stable
How it was run: as §1

[3] = folding stability dG unfold (combined trypsin and chymotrypsin); higher = more stable
How it was run: as §1

Sequence	folding stability dG unfold [1] [kcal/mol]	folding stability dG unfold [2] [kcal/mol]	folding stability dG unfold [3] [kcal/mol]
SAGGSAGGSKQILKKLGLPPGKEVQIMMTPNDMNELRDLPGIKSIKMEPRPDGYYQHSIRIDNSAGGSAGGS [r12_750_TrROS]	-1.31 ± 0.59	-0.386 ± 0.33	-0.583 ± 0.49
SAGGSAGGSKTLKIEIPVEEESEEEARKKIKEALKELGIKEITEEDIKIERKEDGTLRAEIKLSAGGSAGGS [r12_122_TrROS_Hall]	0.987 ± 0.084	0.343 ± 0.11	0.817 ± 0.17
SAGGSAGGSKTLVIEEDGELYKVRITNKNGKEIEIVMSADEIKKLPPNAKVEVEKIKLPEKKPSAGGSAGGS [r12_419_TrROS_Hall]	1.18 ± 0.028	1.52 ± 0.067	1.36 ± 0.062
SAGGSAGGSKVDIVKVEVYEVESPLGGRYYLVKVYRKDGRPILVLASPSTTPEEVLKKAEEAESAGGSAGGS [r12_1047_TrMRF]	1.96 ± 0.049	2.78 ± 0.053	2.48 ± 0.12
SAGGSAGGSKVIPITFPKSLSLEQIEDFVRKIAAESGAKVKSVKIVDVDPENNRVTVLVEVEGSAGGSAGGS [r12_168_TrMRF]	3.14 ± 0.042	3.34 ± 0.038	3.31 ± 0.079
SAGGSAGGSKWIKIMYMIPPGDPEEIIEKLLPPGYKIEEVEVQRMPGYFMVDITIRDEDPDAISAGGSAGGS [r12_445_TrROS]	2.46 ± 0.11	2.37 ± 0.16	2.37 ± 0.21
SAGGSAGGSLIPADRTYKVTVTVEGDKVILTLTDPTSSVTYTLTLDIGPEKVPAGSTLTYTGSSAGGSAGGS [r12_525_JUSTAS]	1.22 ± 0.075	1.7 ± 0.19	1.56 ± 0.25
SAGGSAGGSLVIPLPNGGRIEVLEVGEDYVLVRLVDPMPGTNKPRVSEIRLKLPPLKPPPPDKSAGGSAGGS [r12_959_TrMRF]	2.36 ± 0.073	2.14 ± 0.032	2.28 ± 0.11
SAGGSAGGSMALPPDLEVRITERTVSPDGSTTTYTVERPDGTTVTLTSEAELAALRESGVVLESAGGSAGGS [r12_455_JUSTAS]	0.227 ± 0.086	-0.137 ± 0.15	0.145 ± 0.089
SAGGSAGGSMDGTVRQPPGGVWEVRARPPAVTPVLVTVVLVTVDADGNLILNPVAGYTHPDELSAGGSAGGS [r12_1027_TrMRF]	0.359 ± 0.032	1.11 ± 0.074	0.848 ± 0.077
SAGGSAGGSMEENKPVVTLTTVEIYIESEVDPSLGKPLNPKKITVTLTTTVPPDGSTSTSTLFSAGGSAGGS [r12_438_JUSTAS]	1.11 ± 0.17	1.67 ± 0.17	1.45 ± 0.19
SAGGSAGGSMEEVEVFELEDGTLLVLVRVDGKEELIEIPLDDLKKLPNVKEVKIFPVKKVEKPSAGGSAGGS [r12_343_TrROS_Hall]	0.803 ± 0.052	1.43 ± 0.057	1.21 ± 0.086
SAGGSAGGSMEFVEIEIEKELETEVSPDGTTTTRYRVPDGSILVVTTTHPPDGVPTPTVTLVASAGGSAGGS [r20_240_JUSTAS]	1.16 ± 0.021	0.944 ± 0.075	1.08 ± 0.045
SAGGSAGGSMEIIGSFTFPNPNGMNIKVNVYRNPEEKKWWAKVEIWDGGKPKTHTMPLDDFLKSAGGSAGGS [r12_1063_TrROS]	1.23 ± 0.042	2.06 ± 0.088	1.73 ± 0.1
SAGGSAGGSMEIIPPEELLARLSPEELVLVRLPTAPRLLPREELRLLPRDIPVEVEVIPRLPPSAGGSAGGS [r12_501_TrMRF]	0.496 ± 0.23	2.24 ± 0.1	1.5 ± 0.46
SAGGSAGGSMEIPANIPIEEFAALIKKKGNFEVKKVGPKTFVIVSKDNKKPLVVKFDAKPGLDSAGGSAGGS [r20_236_TrMRF]	-0.035 ± 0.064	0.261 ± 0.15	0.183 ± 0.076

Sequence	folding stability dG unfold [1] [kcal/mol]	folding stability dG unfold [2] [kcal/mol]	folding stability dG unfold [3] [kcal/mol]
SAGGSAGGSMEIVVPVKNPEELKAVAEELEKKGYKVEKLPDGSLKVEKPGSVIYIKGDPVPPLSAGGSAGGS [r12_204_JUSTAS]	1.52 ± 0.074	1.49 ± 0.06	1.45 ± 0.14
SAGGSAGGSMEPIDLSIVEIKEELLPSGKKKYIVTIETPGKKVKKYTFPPDISIEDIKKLILNSAGGSAGGS [r20_115_JUSTAS]	2.17 ± 0.11	2.881 ± 0.026	2.69 ± 0.12
SAGGSAGGSMGLNVTYTVNVTHPDGTVETFPFEFDGTPEEAEEFARAIAEAHPDVKVTVTPGASAGGSAGGS [r12_268_TrMRF]	3.06 ± 0.12	3.06 ± 0.037	3.05 ± 0.076
SAGGSAGGSMGLVVRREDGTLVLFRLGEDGLEEFTVPLEDWLTVPEEFFDAIPPEEVDEATPESAGGSAGGS [r12_793_TrMRF]	1.4 ± 0.15	1.9 ± 0.092	1.69 ± 0.12
SAGGSAGGSMGYLTEPDISVTRTPDGTVTVTTTNTTYDPSTGKKLSTTTTTTTVTLAPDEELLSAGGSAGGS [r12_1038_JUSTAS]	0.603 ± 0.056	0.628 ± 0.052	0.735 ± 0.11
SAGGSAGGSMIGTADGTPVPFEVTHAEVYEVTLPNGEKYYLIKAYDPSTGKYFVALIPAKDIASAGGSAGGS [r12_823_TrMRF]	2.77 ± 0.11	2.84 ± 0.052	2.8 ± 0.1
SAGGSAGGSMIVETEVEEGDGSAVTKTFYPDSVTTTVNTPDEVTVEKTFPDGTVETTTVPLSPSAGGSAGGS [r12_507_JUSTAS]	0.607 ± 0.028	0.967 ± 0.031	0.896 ± 0.086
SAGGSAGGSMKIKIEVDKETGYIVIEAEPGETIEIEIGGKKIKMEVIENEDGSLYFVFKIEKPSAGGSAGGS [r12_970_TrROS_Hall]	2.23 ± 0.12	4.06 ± 0.085	3.6 ± 0.24
SAGGSAGGSMKIKPGQVVKIKVEKDGKIYEFEAKIDPKTGKLVEIKSAEELKGLKIKEIEIVPSAGGSAGGS [r12_6_TrROS_Hall]	1.14 ± 0.027	2.274 ± 0.016	1.99 ± 0.062
SAGGSAGGSMKIRIERTPDKLTIMIPPDNPDKIKNIIDNFGYPITDVKVTQNPPGMHMIEIPLSAGGSAGGS [r12_493_TrROS]	1.58 ± 0.095	1.47 ± 0.082	1.51 ± 0.19
SAGGSAGGSMKIVIVVDEDGSVRVRIEETGEEITFPKGMTAEEIAELLKKKFPNLEVEIVEVPSAGGSAGGS [r12_423_TrROS_Hall]	4.28 ± 0.19	3.09 ± 0.12	3.76 ± 0.24
SAGGSAGGSMKKITLTLTFPNGTTETLDITPLLEKSGLSPEEAIQLLKEELPENVTYKVTTEGSAGGSAGGS [r12_399_JUSTAS]	2.69 ± 0.083	3.152 ± 0.03	3.01 ± 0.084
SAGGSAGGSMKPGEKVKVEIVSYDEKTKELTIKITYGPKKTKTITIKPKTKEEALEQLKKLLKSAGGSAGGS [r20_167_TrROS_Hall]	1.93 ± 0.17	3.14 ± 0.051	2.6 ± 0.27
SAGGSAGGSMKPVVDSKADPTSGPEKTLTLTLGDETVTHTVSSSESLTIPLPPNSTVSFEPLGSAGGSAGGS [r12_373_JUSTAS]	0.791 ± 0.021	1.11 ± 0.02	1.03 ± 0.042
SAGGSAGGSMKTEVTVDEEGKYTVTVTPPDGSTVNLVVPPGDPAAAVAAAKAAGLEVEDIKAASAGGSAGGS [r12_891_JUSTAS]	0.0357 ± 0.061	-0.241 ± 0.15	-0.21 ± 0.27

Reference: the supplement of paper PMC12764529
